# Values quoted from earlier work as cited in PMC9163320.
# Biological target: Asp303 (UniProt position 303, VILFMDRNLEQ)
# Experiment: NMR
# Details: folded Hint domain; no ligand stated
row,Substance,pKa
1,"Hedgehog protein, Hint domain of HhC, C258A mutant (Drosophila melanogaster; C258A)",4.2
2,"Hedgehog protein, Hint domain of the C-terminal autoprocessing domain (HhC) (Drosophila melanogaster)",5.6
